Reference: the supplement of paper PMC6755084

B1: minF1; a variant is named by its letters at N, in order (parent)
chain: GAGACCGCAACTGAAAAGTTGTTNNNNAANNNNGGNTNNATTTCTGCACGTAGAAGCAAAAGGC

Variants of: B1
Assay: fraction ligated after 30 min (ligated reads / total reads); higher = more ligase activity
Conditions: with F1*subA RNA substrate (template-directed ligation), 42 °C
Description: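 Chip-synthesised pool of minF1 ligase ribozyme variants (single and double substitutions, single to quadruple deletions, bulge and P2 designed variants) was transcribed with T7 and reacted as a pool with excess substrate F1*subA for 30 min at 42 C in 50 mM EPPS pH 8.5, 25 mM MgCl2. Ligated and unligated RNAs were separated by PAGE, barcoded by RT and deep sequenced; fraction ligated = ligated reads / total reads, relative activity = FL / FL of wild-type minF1 (0.76); sequencing FL correlated with PAGE (R2 = 0.98). Sequences are the DNA template of the ribozyme.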

Row | Variant | fraction ligated
1 | GAGACCGCAACTGAAAAGTTGTTATAGAAATGTGGGTTGATTTCTGCACGTAGAAGCAAAAGGC | 0.00629
2 | GAGACCGCAACTGAAAAGTTGTTATAGAAATGTGGGTTAATTTCTGCACGTAGAAGCAAAAGGC | 0.00402
3 | GAGACCGCAACTGAAAAGTTGTTATCAGAAAGTGGGTTAATTTCTGCACGTAGAAGCAAAAGGC | 0.00412
4 | GAGACCGCAACTGAAAAGTTGTTATCAGAAAGAGGGTTGATTTCTGCACGTAGAAGCAAAAGGC | 0.00384
5 | GAGACCGCAACTGAAAAGTTGTTATAGAAATGGGGTTGAATTTCTGCACGTAGAAGCAAAAGGC | 0.00397
6 | GAGACCGCAACTGAAAAGTTGTTATAGAAATGAGGGTTGATTTCTGCACGTAGAAGCAAAAGGC | 0.0071
7 | GAGACCGCAACTGAAAAGTTGTTATAGAAATGGTGGGTTATTTCTGCACGTAGAAGCAAAAGGC | 0.00071
8 | GAGACCGCAACTGAAAAGTTGTTATAGAATGGATGGTTAATTTCTGCACGTAGAAGCAAAAGGC | 0.00645
9 | GAGACCGCAACTGAAAAGTTGTTATAGAAATTGGGTTGAATTTCTGCACGTAGAAGCAAAAGGC | 0.00167
10 | GAGACCGCAACTGAAAAGTTGTTATAGATGATGGGTTGAATTTCTGCACGTAGAAGCAAAAGGC | 0.00303
11 | GAGACCGCAACTGAAAAGTTGTTATAGAGGATGGGTTGAATTTCTGCACGTAGAAGCAAAAGGC | 0.00633
12 | GAGACCGCAACTGAAAAGTTGTTATAGAAATGGATGGGTTTTTCTGCACGTAGAAGCAAAAGGC | 0.00172
13 | GAGACCGCAACTGAAAAGTTGTTATAGAATGGAGGTTGAATTTCTGCACGTAGAAGCAAAAGGC | 0.00362
14 | GAGACCGCAACTGAAAAGTTGTTATAGAATGGTGGGTTGATTTCTGCACGTAGAAGCAAAAGGC | 0.00637
15 | GAGACCGCAACTGAAAAGTTGTTATAGAATGGTGGGTTAATTTCTGCACGTAGAAGCAAAAGGC | 0.0012
16 | GAGACCGCAACTGAAAAGTTGTTATAGAAGGATGGTTGAATTTCTGCACGTAGAAGCAAAAGGC | 0.00436
17 | GAGACCGCAACTGAAAAGTTGTTATAGAAATGATGGTTGATTTCTGCACGTAGAAGCAAAAGGC | 0.00408
18 | GAGACCGCAACTGAAAAGTTGTTATAGAATGATGGGTTAATTTCTGCACGTAGAAGCAAAAGGC | 0.00203
19 | GAGACCGCAACTGAAAAGTTGTTATAGAATGATGGGTTGATTTCTGCACGTAGAAGCAAAAGGC | 0.00732
20 | GAGACCGCAACTGAAAAGTTGTTATCAGAAATAGGGTTAATTTCTGCACGTAGAAGCAAAAGGC | 0.00232
21 | GAGACCGCAACTGAAAAGTTGTTATAGAAATGGAGGTTAATTTCTGCACGTAGAAGCAAAAGGC | 0.00325

Row | Variant | fraction ligated
22 | GAGACCGCAACTGAAAAGTTGTTATAGAAATGGTGGTTAATTTCTGCACGTAGAAGCAAAAGGC | 0.00288
23 | GAGACCGCAACTGAAAAGTTGTTATAGAAATGGATGGTTATTTCTGCACGTAGAAGCAAAAGGC | 0.0013
24 | GAGACCGCAACTGAAAAGTTGTTATAGAAATGGTGGGTTGTTTCTGCACGTAGAAGCAAAAGGC | 0.000495
25 | GAGACCGCAACTGAAAAGTTGTTATAGAATGGGGGTTGAATTTCTGCACGTAGAAGCAAAAGGC | 0.00334
26 | GAGACCGCAACTGAAAAGTTGTTATCAGAAAGGAGGTTGATTTCTGCACGTAGAAGCAAAAGGC | 0.00764
27 | GAGACCGCAACTGAAAAGTTGTTATCAGAAAGGTGGTTGATTTCTGCACGTAGAAGCAAAAGGC | 0.00328
28 | GAGACCGCAACTGAAAAGTTGTTATCAGAAAGGAGGGTTATTTCTGCACGTAGAAGCAAAAGGC | 0.00203
29 | GAGACCGCAACTGAAAAGTTGTTATAGAAATGAGGTTGAATTTCTGCACGTAGAAGCAAAAGGC | 0.00363
30 | GAGACCGCAACTGAAAAGTTGTTATAGAATGGATGGGTTGTTTCTGCACGTAGAAGCAAAAGGC | 0.000271
31 | GAGACCGCAACTGAAAAGTTGTTATAGAATATGGGTTGAATTTCTGCACGTAGAAGCAAAAGGC | 0.00386
32 | GAGACCGCAACTGAAAAGTTGTTATCAGAAAGGTGGGTTGTTTCTGCACGTAGAAGCAAAAGGC | 0.000216
33 | GAGACCGCAACTGAAAAGTTGTTATAGAATGTGGGTTGAATTTCTGCACGTAGAAGCAAAAGGC | 0.0025
34 | GAGACCGCAACTGAAAAGTTGTTATCAGAAAGTGGTTGAATTTCTGCACGTAGAAGCAAAAGGC | 0.0038
35 | GAGACCGCAACTGAAAAGTTGTTATCAGAAAGAGGGTTAATTTCTGCACGTAGAAGCAAAAGGC | 0.0017
36 | GAGACCGCAACTGAAAAGTTGTTATCAGAAAATGGGTTAATTTCTGCACGTAGAAGCAAAAGGC | 0.0033
37 | GAGACCGCAACTGAAAAGTTGTTATAGATGGAGGGTTGAATTTCTGCACGTAGAAGCAAAAGGC | 0.00713
38 | GAGACCGCAACTGAAAAGTTGTTATCAGAAAATGGTTGAATTTCTGCACGTAGAAGCAAAAGGC | 0.00208
39 | GAGACCGCAACTGAAAAGTTGTTATCAGAAAATGGGTTGATTTCTGCACGTAGAAGCAAAAGGC | 0.00629
40 | GAGACCGCAACTGAAAAGTTGTTATAGAAATGATGGGTTATTTCTGCACGTAGAAGCAAAAGGC | 0.00193
41 | GAGACCGCAACTGAAAAGTTGTTATCAGAAAGGAGGTTAATTTCTGCACGTAGAAGCAAAAGGC | 0.00347
42 | GAGACCGCAACTGAAAAGTTGTTATCAGAAAGGTGGTTAATTTCTGCACGTAGAAGCAAAAGGC | 0.00211
